Data: paper PMC3433420
Where “and” joins values, the source holds several entries; their conditions need not be identical. Equal values may be shown once. Read-outs that look alike come from different tables or passages of the source.

What was measured:
SRC (Homo sapiens) [1] = molecular target: SRC (Homo sapiens) (UniProt P12931); settings: cited from earlier work
[2] = molecular target: MET pY1313 phosphopeptide, rhodamine-labelled; experiment: fluorescence polarisation; saturation binding in solution: rhodamine peptide fixed at 10 nM, protein titrated 0.002-10 uM, 20 min at room temperature; assay buffer 20 mM HEPES, 100 mM KCl, 0.1% Tween-20, 5 mM DTT, pH 7.8; apparent KD
[3] = molecular target: ErbB2 pY685 phosphopeptide, rhodamine-labelled (human); experiment: as above
[4] = molecular target: ErbB1 pY801 phosphopeptide, rhodamine-labelled (human); experiment: as above
BLK SH2 domain (human) = BLK SH2 domain (human) (UniProt P51451); experiment: peptide or protein array; SH2/PTB proteins spotted on aldehyde slides, rhodamine peptide titrated in buffer B (20 mM HEPES, 100 mM KCl, 0.1% Tween-20, 5 mM DTT, pH 7.8), 1 h at room temperature; replicate assays
[5] = molecular target: SH3BP2 SH2 domain (human) (UniProt P78314); experiment: as above
YES1 SH2 domain (human) = YES1 SH2 domain (human) (UniProt P07947); experiment: as above
[6] = molecular target: SYK tandem SH2 domains (human); experiment: as above
NCK2 (Homo sapiens) = NCK2 (Homo sapiens) (UniProt O43639); settings: cited from earlier work
SHC1-PTB (Homo sapiens) [7] = molecular target: SHC1-PTB (Homo sapiens) (UniProt P29353); settings: cited from earlier work
ABL1 (Homo sapiens) = ABL1 (Homo sapiens) (UniProt P00519); settings: cited from earlier work
GRB2 (Homo sapiens) = GRB2 (Homo sapiens) (UniProt P62993); settings: cited from earlier work
ABL2 (Homo sapiens) [8] = molecular target: ABL2 (Homo sapiens) (UniProt P42684); settings: cited from earlier work
SYK-N (Homo sapiens) [9] = molecular target: SYK-N (Homo sapiens) (UniProt P43405); settings: cited from earlier work
SHC1-PTB (Homo sapiens) [10] = molecular target: SHC1-PTB (Homo sapiens) (UniProt P29353); settings: cited from earlier work; remark: listed apart in the source
ABL2 (Homo sapiens) [11] = molecular target: ABL2 (Homo sapiens) (UniProt P42684); settings: cited from earlier work; remark: listed apart in the source
TNS4 (Homo sapiens) = TNS4 (Homo sapiens) (UniProt Q8IZW8); settings: cited from earlier work
HSH2D (Homo sapiens) = HSH2D (Homo sapiens) (UniProt Q96JZ2); settings: cited from earlier work
[12] = molecular target: PLCG1 C-terminal SH2 domain (human); experiment: SPR; Biacore 3000; 6X His SH2 proteins held on a Ni-NTA chip, dye-free peptides in solution, equilibrium
[13] = molecular target: ErbB1 Y900 non-phosphorylated peptide, rhodamine-labelled (human); experiment: fluorescence polarisation; saturation binding in solution: rhodamine peptide fixed at 10 nM, protein titrated 0.002-10 uM, 20 min at room temperature; assay buffer 20 mM HEPES, 100 mM KCl, 0.1% Tween-20, 5 mM DTT, pH 7.8; apparent KD
[14] = molecular target: PIK3R3 C-terminal SH2 domain (human); experiment: SPR; Biacore 3000; 6X His SH2 proteins held on a Ni-NTA chip, dye-free peptides in solution, equilibrium
CRKL (Homo sapiens) [15] = molecular target: CRKL (Homo sapiens) (UniProt P46109); settings: cited from earlier work
SYK-NC (Homo sapiens) [16] = molecular target: SYK-NC (Homo sapiens) (UniProt P43405); settings: cited from earlier work
RASA1-N (Homo sapiens) [17] = molecular target: RASA1-N (Homo sapiens) (UniProt P20936); settings: cited from earlier work
CRK (Homo sapiens) [18] = molecular target: CRK (Homo sapiens) (UniProt P46108); settings: cited from earlier work
ABL2 (Homo sapiens) [19] = molecular target: ABL2 (Homo sapiens) (UniProt P42684); settings: cited from earlier work; remark: listed apart in the source
SRC (Homo sapiens) [20] = molecular target: SRC (Homo sapiens) (UniProt P12931); settings: cited from earlier work; remark: listed apart in the source
YES1 (Homo sapiens) [21] = molecular target: YES1 (Homo sapiens) (UniProt P07947); settings: cited from earlier work
SLA2 (Homo sapiens) = SLA2 (Homo sapiens) (UniProt Q9H6Q3); settings: cited from earlier work
SYK-NC (Homo sapiens) [22] = molecular target: SYK-NC (Homo sapiens) (UniProt P43405); settings: cited from earlier work; remark: listed apart in the source
PLCG1-NC (Homo sapiens) = PLCG1-NC (Homo sapiens) (UniProt P19174); settings: cited from earlier work
VAV2 (Homo sapiens) = VAV2 (Homo sapiens) (UniProt P52735); settings: cited from earlier work
RASA1-N (Homo sapiens) [23] = molecular target: RASA1-N (Homo sapiens) (UniProt P20936); settings: cited from earlier work; remark: listed apart in the source
PIK3R2-NC (Homo sapiens) = PIK3R2-NC (Homo sapiens) (UniProt O00459); settings: cited from earlier work
SHC1-PTB (Homo sapiens) [24] = molecular target: SHC1-PTB (Homo sapiens) (UniProt P29353); settings: cited from earlier work; remark: listed apart in the source
ABL2 (Homo sapiens) [25] = molecular target: ABL2 (Homo sapiens) (UniProt P42684); settings: cited from earlier work; remark: listed apart in the source
PIK3R3-NC (Homo sapiens) = PIK3R3-NC (Homo sapiens) (UniProt Q92569); settings: cited from earlier work
SH2B3 (Homo sapiens) = SH2B3 (Homo sapiens) (UniProt Q9UQQ2); settings: cited from earlier work
PLCG2-NC (Homo sapiens) = PLCG2-NC (Homo sapiens) (UniProt P16885); settings: cited from earlier work
[26] = molecular target: PIK3R1 N-terminal SH2 domain (human); experiment: SPR; Biacore 3000; 6X His SH2 proteins held on a Ni-NTA chip, dye-free peptides in solution, equilibrium
SYK-N (Homo sapiens) [27] = molecular target: SYK-N (Homo sapiens) (UniProt P43405); settings: cited from earlier work; remark: listed apart in the source
CRKL (Homo sapiens) [28] = molecular target: CRKL (Homo sapiens) (UniProt P46109); settings: cited from earlier work; remark: listed apart in the source
ABL2 (Homo sapiens) [29] = molecular target: ABL2 (Homo sapiens) (UniProt P42684); settings: cited from earlier work; remark: listed apart in the source
BMX (Homo sapiens) = BMX (Homo sapiens) (UniProt P51813); settings: cited from earlier work
ABL2 (Homo sapiens) [30] = molecular target: ABL2 (Homo sapiens) (UniProt P42684); settings: cited from earlier work; remark: listed apart in the source
SYK-NC (Homo sapiens) [31] = molecular target: SYK-NC (Homo sapiens) (UniProt P43405); settings: cited from earlier work; remark: listed apart in the source
TNS1 (Homo sapiens) = TNS1 (Homo sapiens) (UniProt Q9HBL0); settings: cited from earlier work
CRKL (Homo sapiens) [32] = molecular target: CRKL (Homo sapiens) (UniProt P46109); settings: cited from earlier work; remark: listed apart in the source
YES1 (Homo sapiens) [33] = molecular target: YES1 (Homo sapiens) (UniProt P07947); settings: cited from earlier work; remark: listed apart in the source
RASA1-N (Homo sapiens) [34] = molecular target: RASA1-N (Homo sapiens) (UniProt P20936); settings: cited from earlier work; remark: listed apart in the source
SHB (Homo sapiens) = SHB (Homo sapiens) (UniProt Q15464); settings: cited from earlier work
CRK (Homo sapiens) [35] = molecular target: CRK (Homo sapiens) (UniProt P46108); settings: cited from earlier work; remark: listed apart in the source
ABL2 (Homo sapiens) [36] = molecular target: ABL2 (Homo sapiens) (UniProt P42684); settings: cited from earlier work; remark: listed apart in the source

Sequence of ABL2 (Homo sapiens) (P42684 168-268): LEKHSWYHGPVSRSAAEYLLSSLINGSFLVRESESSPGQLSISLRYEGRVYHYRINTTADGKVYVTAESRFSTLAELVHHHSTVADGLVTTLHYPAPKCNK
Sequence of SHC1-PTB (Homo sapiens) (P29353 483-583): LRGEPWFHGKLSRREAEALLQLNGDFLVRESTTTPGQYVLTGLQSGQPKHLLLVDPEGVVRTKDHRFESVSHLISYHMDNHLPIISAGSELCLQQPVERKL
Sequence of CRKL (Homo sapiens) (P46109 9-107): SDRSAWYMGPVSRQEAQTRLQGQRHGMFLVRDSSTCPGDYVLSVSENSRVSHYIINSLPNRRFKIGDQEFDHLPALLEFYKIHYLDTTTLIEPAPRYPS
Sequence of RASA1-N (Homo sapiens) (P20936 176-446): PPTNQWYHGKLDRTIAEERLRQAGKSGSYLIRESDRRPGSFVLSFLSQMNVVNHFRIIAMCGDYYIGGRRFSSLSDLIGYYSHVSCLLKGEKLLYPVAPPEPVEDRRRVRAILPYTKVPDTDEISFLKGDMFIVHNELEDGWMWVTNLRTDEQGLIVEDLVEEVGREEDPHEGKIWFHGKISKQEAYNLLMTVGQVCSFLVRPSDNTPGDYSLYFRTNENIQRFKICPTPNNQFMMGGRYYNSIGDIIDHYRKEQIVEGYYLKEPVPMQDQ
Sequence of BLK SH2 domain (human) (P51451 124-220): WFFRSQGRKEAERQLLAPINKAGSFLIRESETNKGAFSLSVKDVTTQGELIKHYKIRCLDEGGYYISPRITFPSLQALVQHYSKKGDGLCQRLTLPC
Sequence of SH3BP2 SH2 domain (human) (P78314 457-555): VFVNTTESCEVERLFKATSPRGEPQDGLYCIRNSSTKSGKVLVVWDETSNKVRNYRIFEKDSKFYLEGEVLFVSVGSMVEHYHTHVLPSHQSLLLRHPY
Sequence of CRK (Homo sapiens) (P46108 8-123): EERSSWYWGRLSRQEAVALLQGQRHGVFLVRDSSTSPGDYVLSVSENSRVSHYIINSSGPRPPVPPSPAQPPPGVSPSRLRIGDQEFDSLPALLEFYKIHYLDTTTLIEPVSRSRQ
Sequence of YES1 (Homo sapiens) (P07947 153-260): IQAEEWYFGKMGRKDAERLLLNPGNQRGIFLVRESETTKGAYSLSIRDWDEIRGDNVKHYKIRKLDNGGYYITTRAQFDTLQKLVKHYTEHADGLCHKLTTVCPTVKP
Sequence of YES1 SH2 domain (human) (P07947 158-255): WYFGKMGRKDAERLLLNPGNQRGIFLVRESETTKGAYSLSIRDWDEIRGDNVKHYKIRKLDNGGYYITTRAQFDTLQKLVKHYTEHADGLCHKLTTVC
Sequence of TNS4 (Homo sapiens) (Q8IZW8 444-561): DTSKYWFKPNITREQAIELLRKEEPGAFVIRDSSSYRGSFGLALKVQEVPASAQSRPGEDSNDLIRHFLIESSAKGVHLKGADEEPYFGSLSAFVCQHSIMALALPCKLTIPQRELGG
Sequence of VAV2 (Homo sapiens) (P52735 668-772): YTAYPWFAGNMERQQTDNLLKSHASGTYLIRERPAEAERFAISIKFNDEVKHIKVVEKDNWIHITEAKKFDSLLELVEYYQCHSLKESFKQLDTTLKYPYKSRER
Sequence of SHB (Homo sapiens) (Q15464 405-509): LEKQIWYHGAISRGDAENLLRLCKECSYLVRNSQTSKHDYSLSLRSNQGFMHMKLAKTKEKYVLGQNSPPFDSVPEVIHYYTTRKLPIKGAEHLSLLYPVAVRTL
Sequence of BMX (Homo sapiens) (P51813 291-397): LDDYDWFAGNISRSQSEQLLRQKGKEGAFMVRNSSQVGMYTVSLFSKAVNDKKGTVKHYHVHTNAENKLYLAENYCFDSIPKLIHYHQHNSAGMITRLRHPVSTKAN
Sequence of GRB2 (Homo sapiens) (P62993 55-157): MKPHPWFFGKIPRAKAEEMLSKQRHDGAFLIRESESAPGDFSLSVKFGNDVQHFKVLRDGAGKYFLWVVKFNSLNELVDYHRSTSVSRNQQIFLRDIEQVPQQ
Sequence of PLCG2-NC (Homo sapiens) (P16885 527-740): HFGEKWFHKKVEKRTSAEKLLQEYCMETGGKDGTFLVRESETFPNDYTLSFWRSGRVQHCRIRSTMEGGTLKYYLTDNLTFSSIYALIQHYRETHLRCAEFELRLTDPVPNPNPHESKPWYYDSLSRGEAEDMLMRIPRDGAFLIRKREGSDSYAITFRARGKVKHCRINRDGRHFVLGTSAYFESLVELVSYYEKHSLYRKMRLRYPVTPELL
Sequence of HSH2D (Homo sapiens) (Q96JZ2 29-130): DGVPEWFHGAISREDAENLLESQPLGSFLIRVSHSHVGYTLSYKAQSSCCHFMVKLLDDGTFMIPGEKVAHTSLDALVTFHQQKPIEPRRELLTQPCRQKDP
Sequence of PIK3R2-NC (Homo sapiens) (O00459 325-721): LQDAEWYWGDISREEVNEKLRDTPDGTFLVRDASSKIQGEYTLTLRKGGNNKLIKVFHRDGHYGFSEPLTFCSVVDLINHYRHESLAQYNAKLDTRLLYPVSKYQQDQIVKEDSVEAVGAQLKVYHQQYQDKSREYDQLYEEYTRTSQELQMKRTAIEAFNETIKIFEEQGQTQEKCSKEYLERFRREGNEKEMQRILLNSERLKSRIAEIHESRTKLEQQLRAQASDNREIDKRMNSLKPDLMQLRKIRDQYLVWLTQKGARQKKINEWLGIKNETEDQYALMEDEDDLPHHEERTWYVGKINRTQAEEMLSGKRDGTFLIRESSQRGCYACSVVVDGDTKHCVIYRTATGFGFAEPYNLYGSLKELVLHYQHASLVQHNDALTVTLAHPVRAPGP
Sequence of NCK2 (Homo sapiens) (O43639 280-380): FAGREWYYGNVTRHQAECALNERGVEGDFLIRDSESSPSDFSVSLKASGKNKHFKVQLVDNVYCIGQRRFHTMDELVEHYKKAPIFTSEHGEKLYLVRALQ
Sequence of TNS1 (Homo sapiens) (Q9HBL0 1562-1681): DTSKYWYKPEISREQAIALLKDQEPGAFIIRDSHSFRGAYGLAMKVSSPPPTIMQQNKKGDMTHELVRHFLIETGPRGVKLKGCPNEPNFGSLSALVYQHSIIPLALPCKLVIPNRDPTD
Sequence of SLA2 (Homo sapiens) (Q9H6Q3 89-196): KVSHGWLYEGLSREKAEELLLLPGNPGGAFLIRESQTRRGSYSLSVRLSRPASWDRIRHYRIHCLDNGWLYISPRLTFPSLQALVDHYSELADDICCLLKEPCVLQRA
Sequence of ABL1 (Homo sapiens) (P00519 122-222): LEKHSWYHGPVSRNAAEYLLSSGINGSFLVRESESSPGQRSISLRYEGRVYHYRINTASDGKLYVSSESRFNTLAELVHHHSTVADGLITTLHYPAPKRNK
Sequence of PLCG1-NC (Homo sapiens) (P19174 545-761): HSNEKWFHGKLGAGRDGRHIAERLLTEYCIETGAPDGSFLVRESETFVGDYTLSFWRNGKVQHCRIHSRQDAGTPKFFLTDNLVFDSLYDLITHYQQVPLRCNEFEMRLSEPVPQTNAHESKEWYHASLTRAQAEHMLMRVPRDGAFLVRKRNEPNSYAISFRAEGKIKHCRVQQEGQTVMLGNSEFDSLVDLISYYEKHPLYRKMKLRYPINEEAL
Sequence of SH2B3 (Homo sapiens) (Q9UQQ2 359-467): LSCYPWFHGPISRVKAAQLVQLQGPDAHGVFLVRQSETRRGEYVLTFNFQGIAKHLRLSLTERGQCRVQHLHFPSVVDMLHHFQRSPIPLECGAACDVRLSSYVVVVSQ

For …pYSADPTVFd, the apparent Kd (screen) (SRC (Homo sapiens) [1]) is listed as 504 nM.

With “PIK3R1 N-terminal SH2 domain (domain or fragment)” the Kd [2] was 256 nM, the Kd [3] was 2510 nM and the Kd [4] was 6960 nM.

With “ErbB4 pY1301 phosphopeptide (18-mer), rhodamine-labelled, for protein microarrays” the Kd (BLK SH2 domain (human)) was 1180 nM and 1600 nM, the Kd [5] was 1180 nM and 1610 nM and the Kd (YES1 SH2 domain (human)) was 1370 nM and 4860 nM. The Kd [6] was 801 nM and 1170 nM.

For …pYHNQPLNPd, the apparent Kd (screen) (NCK2 (Homo sapiens)) is listed as 2000 nM, the apparent Kd (screen) (SHC1-PTB (Homo sapiens) [7]) is listed as 321 nM and the apparent Kd (screen) (ABL1 (Homo sapiens)) is listed as 523 nM. The apparent Kd (screen) (GRB2 (Homo sapiens)) was 2000 nM and the apparent Kd (screen) (ABL2 (Homo sapiens) [8]) was 62 nM.

In the case of …pYVREHKDNd, the apparent Kd (screen) (SYK-N (Homo sapiens) [9]) is listed as 559 nM.

In the case of …pYLGLDVPV, the apparent Kd (screen) (SHC1-PTB (Homo sapiens) [10]) is given as 277 nM and the apparent Kd (screen) (ABL2 (Homo sapiens) [11]) is given as 210 nM.

In the case of …pYTHQSDVWd, the apparent Kd (screen) (TNS4 (Homo sapiens)) is listed as 299 nM and the apparent Kd (screen) (HSH2D (Homo sapiens)) is listed as 1130 nM.

Work on ErbB1 pY978 phosphopeptide, dye-free yielded a Kd [12] of 430 nM.

In the case of “SHC2 PTB domain (from UniProt P98077 1-582) (domain or fragment)”, the Kd [13] is reported as 5420 nM.

In the case of ErbB1 pY900 phosphopeptide, dye-free, the Kd [14] is reported as 1470 nM and the Kd [12] is reported as 10900 nM.

In the case of …pYMTPMRDKd, the apparent Kd (screen) (CRKL (Homo sapiens) [15]) is listed as 65 nM, the apparent Kd (screen) (SYK-NC (Homo sapiens) [16]) is listed as 330 nM and the apparent Kd (screen) (RASA1-N (Homo sapiens) [17]) is listed as 27 nM. The apparent Kd (screen) (CRK (Homo sapiens) [18]) was 29 nM and the apparent Kd (screen) (ABL2 (Homo sapiens) [19]) was 18 nM.

In the case of …pYKGLWIPEd, the apparent Kd (screen) (SRC (Homo sapiens) [20]) is given as 579 nM and the apparent Kd (screen) (YES1 (Homo sapiens) [21]) is given as 540 nM.

In the case of …pYLSEFSLK, the apparent Kd (screen) (SLA2 (Homo sapiens)) is listed as 2000 nM, the apparent Kd (screen) (SYK-NC (Homo sapiens) [22]) is listed as 1670 nM and the apparent Kd (screen) (PLCG1-NC (Homo sapiens)) is listed as 2000 nM. For the same substance, the apparent Kd (screen) (VAV2 (Homo sapiens)) was 2000 nM, the apparent Kd (screen) (RASA1-N (Homo sapiens) [23]) was 709 nM and the apparent Kd (screen) (PIK3R2-NC (Homo sapiens)) was 2000 nM. For the same substance, the apparent Kd (screen) (SHC1-PTB (Homo sapiens) [24]) was 24 nM, the apparent Kd (screen) (ABL2 (Homo sapiens) [25]) was 221 nM and the apparent Kd (screen) (PIK3R3-NC (Homo sapiens)) was 2000 nM. The apparent Kd (screen) (SH2B3 (Homo sapiens)) was 2000 nM.

For …pYNADGGKMd, the apparent Kd (screen) (PLCG2-NC (Homo sapiens)) is given as 1140 nM.

ErbB2 pY685 phosphopeptide, dye-free gave a Kd [14] of 1520 nM and a Kd [26] of 13400 nM.

Work on ErbB4 pY833 phosphopeptide, dye-free yielded a Kd [12] of 3460 nM.

In the case of …pYVNEPLYLd, the apparent Kd (screen) (SYK-N (Homo sapiens) [27]) is listed as 6 nM.

For …pYRAPTSTId, the apparent Kd (screen) (CRKL (Homo sapiens) [28]) is listed as 1240 nM and the apparent Kd (screen) (ABL2 (Homo sapiens) [29]) is listed as 1230 nM.

For …pYQDPHSTAd, the apparent Kd (screen) (BMX (Homo sapiens)) is listed as 1070 nM, the apparent Kd (screen) (ABL2 (Homo sapiens) [30]) is listed as 74 nM and the apparent Kd (screen) (SYK-NC (Homo sapiens) [31]) is listed as 981 nM. For the same substance, the apparent Kd (screen) (TNS1 (Homo sapiens)) was 1280 nM, the apparent Kd (screen) (CRKL (Homo sapiens) [32]) was 2000 nM and the apparent Kd (screen) (YES1 (Homo sapiens) [33]) was 378 nM. For the same substance, the apparent Kd (screen) (RASA1-N (Homo sapiens) [34]) was 1320 nM, the apparent Kd (screen) (SHB (Homo sapiens)) was 991 nM and the apparent Kd (screen) (CRK (Homo sapiens) [35]) was 1230 nM. The apparent Kd (screen) (ABL2 (Homo sapiens) [36]) was 133 nM.

“PIK3R2 tandem SH2 domains (from UniProt O00459 1-728) (domain or fragment)” showed a Kd [13] of 6930 nM.
